From patent publication CN114605536A

Molecular target: 天然TSLP
Experiment: cell-based or functional assay

抑制天然TSLP诱导的SW756-STAT5-Luciferase报告基因细胞STAT5磷酸化活性的IC50: 1.45 ng/mL
Substance: Tezepelumab (antibody)
